The source of these data is patent US20150037340A1 (PEIRRE FABRE MEDICAMENT, published 2015).

Test [1] concerns the target T1, recombinant human Mer-Fc (R and D Systems, cat No 891-MR) (human, UniProt Q12866 26-499, limits assumed).
T1 construct: Bought protein; also called rhMer-Fc; rhMer; not shown: Fc portion
T1 sequence (looked up): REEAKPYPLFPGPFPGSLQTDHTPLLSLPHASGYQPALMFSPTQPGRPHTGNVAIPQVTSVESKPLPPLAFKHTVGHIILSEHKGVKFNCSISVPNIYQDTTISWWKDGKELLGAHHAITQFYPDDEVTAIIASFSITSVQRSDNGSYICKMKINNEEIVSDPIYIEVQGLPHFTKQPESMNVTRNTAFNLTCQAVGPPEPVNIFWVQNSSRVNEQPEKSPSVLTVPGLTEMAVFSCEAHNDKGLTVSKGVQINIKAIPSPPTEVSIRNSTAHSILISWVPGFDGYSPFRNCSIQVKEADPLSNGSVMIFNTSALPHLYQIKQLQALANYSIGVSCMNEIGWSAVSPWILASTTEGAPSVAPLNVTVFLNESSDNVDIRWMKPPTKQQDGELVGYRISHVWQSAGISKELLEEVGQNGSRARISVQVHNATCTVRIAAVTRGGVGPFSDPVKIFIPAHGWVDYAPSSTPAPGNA
Put plainly: ELISA on coated rhMer-Fc, detection with goat anti-mouse IgG-HRP. On the procedure: (§1) Then ½ serial dilutions were done over 12 columns. Plates were washed and a goat anti-mouse (Jackson) specific IgG-HRP was added for 1 h at 37° C. Reaction development was performed using the TMB substrate solution. […] Coating controls were performed in presence of a goat anti-human IgG Fc polyclonal serum labelled with HRP (Jackson, ref 109-035-098) and/or in presence of a HRP-coupled anti-Histidine antibody (R and D Systems, ref: MAB050H). Results are represented in FIGS. 2A, 2B and 2C, respectively.

Test [2] deals with T2, recombinant human Axl-Fc (R and D Systems, cat No 154-AL / 154AL/CF) (human, UniProt P30530 26-451).
T2 construct: Bought protein; also called rhAxl-Fc; rh Axl-Fc protein; not shown: human IgG Fc portion (detected with anti-human IgG Fc)
T2 sequence: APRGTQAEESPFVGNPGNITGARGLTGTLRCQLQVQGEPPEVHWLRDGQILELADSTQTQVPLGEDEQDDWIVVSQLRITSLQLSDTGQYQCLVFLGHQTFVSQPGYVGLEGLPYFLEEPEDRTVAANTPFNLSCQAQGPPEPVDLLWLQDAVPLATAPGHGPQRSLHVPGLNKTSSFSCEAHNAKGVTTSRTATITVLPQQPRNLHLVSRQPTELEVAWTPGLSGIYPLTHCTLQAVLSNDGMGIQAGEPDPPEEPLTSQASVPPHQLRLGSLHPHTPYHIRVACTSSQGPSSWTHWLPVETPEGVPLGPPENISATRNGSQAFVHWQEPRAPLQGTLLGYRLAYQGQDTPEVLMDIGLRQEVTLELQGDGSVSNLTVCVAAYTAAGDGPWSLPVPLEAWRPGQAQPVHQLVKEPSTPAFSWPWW
The experiment in a line: competition ELISA: rhAxl-Fc pre-incubated with the antibody, loaded on coated rhGas6 (blocked ligand), bound rhAxl-Fc detected with anti-human IgG-HRP. The procedure: To further characterize the 1613F12, Gas6 competition assays were performed. In this assay, the free rhAxl-Fc protein and the 1613F12 are incubated to form antigen-antibody complex and then the complexes are loaded on Gas6-coated surface in the assay plate. The unbound antibody-antigen complexes are washed out before adding enzyme-linked secondary antibody against the human Fc portion of the rhAxl-Fc protein. The substrate is then added and the antigen concentration can be determined by the signal strength elicited by the enzyme-substrate reaction.
Briefly reaction mixture comprising the rhAxl-Fc protein in the presence or not of the anti-Axl Mabs to be tested, are prepared on a separate saturated (0.5% gelatin in PBS 1×) plate. Serial 1: 2 dilutions (starting from 80 μg/ml on 12 columns) of murine anti-Axl antibodies are performed. […] After homogenisation, the competition samples are loaded on Gas6-coated plates with a 6 μg/m rhGas6 solution in PBS (R and D Systems cat No 885-GS-CS/CF). After incubation and several washes, bound rhAxl-Fc proteins are detected using a goat anti-Human IgG-HRP (Jackson, ref. 109-035-098). Once bound, the TMB substrate is added to the plates. The reaction is stopped by addition of 1M H₂SO₄ acid solution and the obtained optical densities read at 450 nm using a microplate reader instrument.

Test [3] addresses T3, recombinant human Dtk-Fc (R and D Systems, cat No 859-DK) (human, UniProt Q06418 41-428).
T3 construct: Bought protein; also called rhDtk-Fc; rhDtk; not shown: Fc portion
T3 sequence (looked up): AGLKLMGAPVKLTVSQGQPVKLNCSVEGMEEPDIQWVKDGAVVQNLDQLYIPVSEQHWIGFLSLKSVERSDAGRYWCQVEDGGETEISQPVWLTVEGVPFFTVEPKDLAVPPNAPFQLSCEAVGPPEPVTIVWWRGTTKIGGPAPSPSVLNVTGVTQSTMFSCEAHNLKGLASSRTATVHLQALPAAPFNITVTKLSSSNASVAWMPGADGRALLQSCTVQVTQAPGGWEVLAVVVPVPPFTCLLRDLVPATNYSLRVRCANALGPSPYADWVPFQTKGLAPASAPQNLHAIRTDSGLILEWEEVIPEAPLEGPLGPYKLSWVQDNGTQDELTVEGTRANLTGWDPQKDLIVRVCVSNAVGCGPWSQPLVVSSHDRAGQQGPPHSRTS
The experiment in a line: ELISA on coated rhDtk-Fc, detection with goat anti-mouse IgG-HRP. The procedure: as §1

B1: 1613F12 antibody (murine form) (antibody, V domains shown)
VH: EVHLQQSGAELVKPGASVKLSCTASGFNIRDTYIHWVKQRPEQGLEWIGRLDPANGHTKYGPNFQGRATMTSDTSSNTAYLQLSSLTSEDTAVYYCARGAYYYGSSGLFYFDYWGQGTTLSVSS
VL: DVQITQSPSYLATSPGETITINCRASKSISKYLAWYQEKPGKTNKLLIYSGSTLQSGVPSRFSGSGSGTDFTLTISSLEPEDFAMYFCQQHHEYPLTFGAGTELELK
notes: Whole murine monoclonal antibody purified from a hybridoma; a murine IgG1 (9G4) serves as its isotype control; also called m1613F12; monoclonal antibody 1613F12 derived from the hybridoma I-4505
Turning to B1, the binding result in test [1] and in test [3] was “no binding (tested: log -7.5 M)” in each case. Moreover, in test [2], the “IC50 (read off the curve)” value is roughly 20 nM.
